According to article PMC8406272:

Assays:
[1] = molecular target: T1, Lsr2 (Streptomyces venezuelae ATCC 10712) (UniProt F2R951); assay: EMSA; details: 10 mM Tris pH 7.8, 5 mM MgCl2, 60 mM KCl, 10% glycerol; Lsr2 (EMSA, AFM): room temperature 10 min then ice 30 min; CmlR: 30 C 30 min
T1 sequence: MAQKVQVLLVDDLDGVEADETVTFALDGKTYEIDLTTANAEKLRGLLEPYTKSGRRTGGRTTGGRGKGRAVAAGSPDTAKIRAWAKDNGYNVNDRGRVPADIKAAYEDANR

[2] = molecular target: T2, CmlR (Streptomyces venezuelae ATCC 10712) (UniProt F2RB72); assay: EMSA; details: 10 mM Tris pH 7.8, 5 mM MgCl2, 60 mM KCl, 10% glycerol; Lsr2 (EMSA, AFM): room temperature 10 min then ice 30 min; CmlR: 30 C 30 min
T2 sequence: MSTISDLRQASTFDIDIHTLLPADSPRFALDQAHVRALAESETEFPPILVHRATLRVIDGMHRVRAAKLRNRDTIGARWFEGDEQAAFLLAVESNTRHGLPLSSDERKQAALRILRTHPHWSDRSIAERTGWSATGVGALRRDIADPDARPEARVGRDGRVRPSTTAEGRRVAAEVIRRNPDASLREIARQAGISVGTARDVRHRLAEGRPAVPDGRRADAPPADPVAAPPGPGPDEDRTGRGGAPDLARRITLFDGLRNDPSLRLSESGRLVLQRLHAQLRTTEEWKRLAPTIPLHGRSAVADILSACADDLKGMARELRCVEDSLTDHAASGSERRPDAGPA

Sequence | binding [1] | binding [2]
GGAGACGTTCAGGATCGCGGAACTCTGCTCAGTGGATTTCCGCAGCAGTTTGACCGCTTCCCGGCAGCAGTTCAGCACGGCGAAGAAATTGATGTCGAATATCTTCCGGGAAACCTCGTCCGGGGTCGTCATGAAATGGTTCATCGACGA (double strand) [sven0926 probe] | binds | –
GGATTTTCCTGAACGCCGGAGTCGGGTGACCGATAACCGGACACTTTCCGGATTTCGTGTCCGGATTGAGCCCGGTTATACGTCGAATGCCTCAAGT (double strand) [sven0904-0905 probe] | binds | –
GGCCCACCCCTTCCTTCACTTCCCTTTGCGGGCTCTTCCCTTTGCGGGCTCGGCCCTTCCCGGGTCCGGCGTCTCGAAGTCTGTGGATATCGGTCGCGGGCCGCAAGGGTGTGCAGATCACCACCCCGTGCAACTGAAGGAACCGGACAGTTGAACAGGGCGGTGAACCGCGCGGACTGAACGACCTTGCGTGGGCCGGGGGCGTATGACATAAAAATCCAGGCGTCGGCCCGGAGCACGACTCGGCCGGCGACGCGATCTGTTCTGTCT (double strand) [sven0924-0925 promoter probe] | – | binds
GGTGGATTCCGTAGTCATGGCGCGGACCTTACAGCGATGATCCACGATCATCCGACCGGCTTGTCTATTTTCAGCCAGTCCGACTCGCACCCGGCTCGAACGAAGCCGTGGCCCGAGCGTCACGGAAAGCGTGACACATGTCAGCGCGGCGCCTTTTTCCCTGTTCCGCCGCAATTCCCCGGCACATGATTACGGCCGGAAGCGAAACACATCACCAGGACGTTGTTTCTCGAATTCTCG (double strand) [sven5133 promoter probe] | – | no binding
